Data reported in patent US20150037339A1 (Regeneron, published 2015).

T1: Activin A (homodimer of two inhibin βA subunits; R&D Systems, #338-AC) (human, UniProt P08476 311-426)
T1 construct: Bought protein; also called inhibin-βA dimer
T1 sequence: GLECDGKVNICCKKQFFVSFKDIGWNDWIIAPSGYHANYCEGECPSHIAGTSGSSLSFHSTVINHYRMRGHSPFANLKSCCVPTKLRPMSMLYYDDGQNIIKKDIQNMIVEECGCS

T2: BMP9 (human, UniProt Q9UK05 320-429)
T2 sequence (looked up): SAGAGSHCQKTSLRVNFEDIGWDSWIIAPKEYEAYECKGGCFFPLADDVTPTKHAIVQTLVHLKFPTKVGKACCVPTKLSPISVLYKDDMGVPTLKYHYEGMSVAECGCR

T3: BMP10 (human, UniProt O95393 317-424)
T3 sequence (looked up): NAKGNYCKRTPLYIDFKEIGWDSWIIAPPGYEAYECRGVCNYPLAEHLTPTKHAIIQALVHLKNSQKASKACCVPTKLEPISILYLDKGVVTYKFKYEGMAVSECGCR

B1: H4H10429P (antibody, human IgG4, V domains shown)
VH: QVQLVESGGGVVQPGRSLRLSCVASGFTVSSYGIHWVRQAPGKGLEWVSVIWYDGRNKDYADSVKGRFTISRDNSKNTVYLEMKGLRAEDTALYYCARDKTGDFDSWGQGTLVTVSS
VL: DIQMTQSPSSLSASVGDRVTITCRASQNINSFLSWYQQKPGKAPKFLIYDASSIQSGAPSRFSGSGSGTDFTLTISSLQPEDFATYYCQQSYSSPFTFGQGTKLEIK
notes: H4H prefix means human IgG4 Fc
B2: H4H10436P2 (antibody, human IgG4, V domains shown)
VH: QVQLVESGGGVVQPGRSLRLTCVASGFTVSSYGMHWVRQAPGKGLEWVAVMFYDESKKYYADSVKGRFTISRDNSKNTLYLQMNSLRVEDTAVYYCARDEQLDFEYWGQGTLVTVSS
VL: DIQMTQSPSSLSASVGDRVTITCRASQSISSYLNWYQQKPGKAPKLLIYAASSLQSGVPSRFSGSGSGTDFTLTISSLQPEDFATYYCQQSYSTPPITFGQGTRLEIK
notes: as for B1

Legend:
[1] = molecular target: T1, Activin A (homodimer of two inhibin βA …); test: SPR blocking: 5 nM Activin A + 0.94 nM binder over hActRIIA-hFc surface
Protocol: (§1) The binding signal (RU) was measured at 150 seconds after the start of the injection, and this signal was subtracted by the measured RU value for a negative control reference surface to determine the specific binding signal.

[2] = molecular target: T1, Activin A (homodimer of two inhibin βA …); test: SPR blocking: 5 nM Activin A + 15 nM binder over Follistatin-288 surface
Protocol: as §1

[3] = molecular target: T1, Activin A (homodimer of two inhibin βA …); test: SPR blocking: 5 nM Activin A + 3.75 nM binder over hActRIIB-hFc (Control 4) surface
Protocol: as §1

[4] = molecular target: T1, Activin A (homodimer of two inhibin βA …); test: SPR blocking: 5 nM Activin A + 30 nM binder over hActRIIA-hFc surface
Protocol: as §1

BMP9 = molecular target: T2, BMP9; test: cell-based or functional assay
BMP10 = molecular target: T3, BMP10; test: cell-based or functional assay
[5] = molecular target: T1, Activin A (homodimer of two inhibin βA …); test: SPR blocking: 5 nM Activin A + 60 nM binder over hActRIIA-hFc surface
Protocol: as §1

[6] = molecular target: T1, Activin A (homodimer of two inhibin βA …); test: SPR blocking: 5 nM Activin A + 0.00 nM binder over hActRIIB-hFc (Control 4) surface
Protocol: as §1

[7] = molecular target: T1, Activin A (homodimer of two inhibin βA …); test: SPR blocking: 5 nM Activin A + 0.94 nM binder over hActRIIB-hFc (Control 4) surface
[8] = molecular target: T1, Activin A (homodimer of two inhibin βA …); test: SPR blocking: 5 nM Activin A + 0 nM binder over Follistatin-288 surface
Protocol: as §1

[9] = molecular target: T1, Activin A (homodimer of two inhibin βA …); test: SPR blocking: 5 nM Activin A + 0.94 nM binder over Follistatin-288 surface
Protocol: as §1

[10] = molecular target: T1, Activin A (homodimer of two inhibin βA …); test: SPR blocking: 5 nM Activin A + 60 nM binder over Follistatin-288 surface
Protocol: as §1

[11] = molecular target: T1, Activin A (homodimer of two inhibin βA …); test: SPR blocking: 5 nM Activin A + 1.88 nM binder over Follistatin-288 surface
Protocol: as §1

[12] = molecular target: T1, Activin A (homodimer of two inhibin βA …); test: SPR blocking: 5 nM Activin A + 3.75 nM binder over hActRIIA-hFc surface
Protocol: as §1

[13] = molecular target: T1, Activin A (homodimer of two inhibin βA …); test: SPR blocking: 5 nM Activin A + 30 nM binder over hActRIIB-hFc (Control 4) surface
Protocol: as §1

[14] = molecular target: T1, Activin A (homodimer of two inhibin βA …); test: SPR blocking: 5 nM Activin A + 0.00 nM binder over hActRIIA-hFc surface
Protocol: as §1

[15] = molecular target: T1, Activin A (homodimer of two inhibin βA …); test: SPR blocking: 5 nM Activin A + 7.5 nM binder over Follistatin-288 surface
Protocol: as §1

[16] = molecular target: T1, Activin A (homodimer of two inhibin βA …); test: SPR blocking: 5 nM Activin A + 3.75 nM binder over Follistatin-288 surface
Protocol: as §1

[17] = molecular target: T1, Activin A (homodimer of two inhibin βA …); test: SPR blocking: 5 nM Activin A + 15 nM binder over hActRIIB-hFc (Control 4) surface
[18] = molecular target: T1, Activin A (homodimer of two inhibin βA …); test: SPR blocking: 5 nM Activin A + 30 nM binder over Follistatin-288 surface
Protocol: as §1

[19] = molecular target: T1, Activin A (homodimer of two inhibin βA …); test: SPR blocking: 5 nM Activin A + 1.88 nM binder over hActRIIA-hFc surface
Protocol: as §1

[20] = molecular target: T1, Activin A (homodimer of two inhibin βA …); test: SPR blocking: 5 nM Activin A + 1.88 nM binder over hActRIIB-hFc (Control 4) surface
Protocol: as §1

[21] = molecular target: T1, Activin A (homodimer of two inhibin βA …); test: SPR blocking: 5 nM Activin A + 15 nM binder over hActRIIA-hFc surface
Protocol: as §1

[22] = molecular target: T1, Activin A (homodimer of two inhibin βA …); test: SPR blocking: 5 nM Activin A + 7.50 nM binder over hActRIIA-hFc surface
Protocol: as §1

[23] = molecular target: T1, Activin A (homodimer of two inhibin βA …); test: SPR blocking: 5 nM Activin A + 7.50 nM binder over hActRIIB-hFc (Control 4) surface
[24] = molecular target: T1, Activin A (homodimer of two inhibin βA …); test: SPR blocking: 5 nM Activin A + 60 nM binder over hActRIIB-hFc (Control 4) surface
Protocol: as §1

Row | Binder | % bound RU w/no inhibitor [1] [%] | % bound RU w/no inhibitor [2] [%] | % bound RU w/no inhibitor [3] [%] | % bound RU w/no inhibitor [4] [%] | IC50 [M]; inhibition of 4 nM BMP10 in W-20-17/BRE-luc cells (BMP10) [M] | % bound RU w/no inhibitor [5] [%] | % bound RU w/no inhibitor [6] [%] | % bound RU w/no inhibitor [7] [%] | % bound RU w/no inhibitor [8] [%] | % bound RU w/no inhibitor [9] [%] | % bound RU w/no inhibitor [10] [%] | % bound RU w/no inhibitor [11] [%] | % bound RU w/no inhibitor [12] [%] | % bound RU w/no inhibitor [13] [%] | % bound RU w/no inhibitor [14] [%] | % bound RU w/no inhibitor [15] [%] | % bound RU w/no inhibitor [16] [%] | % bound RU w/no inhibitor [17] [%] | % bound RU w/no inhibitor [18] [%] | % bound RU w/no inhibitor [19] [%] | other results
1 | B1 | 87 | 1 | 19 | 1 | 3.5e-09 | 1 | 100 | 87 | 100 | 97 | 3 | 80 | 19 | 2 | 100 | 1 | 20 | 2 | 2 | 66 | IC50 [M]; inhibition of 800 pM BMP9 in W-20-17/BRE-luc cells (BMP9): 8.1e-09 M; % bound RU w/no inhibitor [20]: 67%; % bound RU w/no inhibitor [21]: 1%; % bound RU w/no inhibitor [22]: 1%; % bound RU w/no inhibitor [23]: 2%; % bound RU w/no inhibitor [24]: 3%
2 | B2 | 75 | 1 | 19 | 2 | > 1e-07 | 2 | 100 | 80 | 100 | 78 | 2 | 61 | 16 | 3 | 100 | 1 | 16 | 2 | 2 | 55 | % bound RU w/no inhibitor [20]: 60%; % bound RU w/no inhibitor [21]: 2%; % bound RU w/no inhibitor [22]: 2%; % bound RU w/no inhibitor [23]: 3%; % bound RU w/no inhibitor [24]: 4%
